Measured values: patent US12168063B2, “Stable, concentrated radionuclide complex solutions” (Advanced Accelerator Applications SA, priority 2018, dated 2024)

Tests used:
[1] = Stability study after storage: chemical purity (peptide purity) by RP-UV-HPLC; format: physicochemical
[2] = after 72 hours at 25° C.

For `C[C@@H](O)[C@H](NC(=O)[C@@H]1CSSC[C@H](NC(=O)[C@@H](Cc2ccccc2)NC(=O)CN2CCN(CC(=O)O)CCN(CC(=O)O)CCN(CC(=O)O)CC2)C(=O)N[C@@H](Cc2ccc(O)cc2)C(=O)N[C@H](Cc2c[nH]c3ccccc23)C(=O)N[C@@H](CCCCN)C(=O)N[C@@H]([C@@H](C)O)C(=O)N1)C(=O)O` [DOTA-TATE, DOTA-d-Phe-Cys-Tyr-d-Trp-Lys-Thr-Cys-Thr (cyclo 2,7)], the “stability with respect to chemical purity” value ([1]; 32° C. for 12 h and 25° for 60 h) was “such high stability was found”, the chemical purity ([1]; after 48 hours at 32° C.) was 100% and the chemical purity ([1]; after 72 hours at 25° C.) was 100%.

For “hydrogen [N-{[4,7,10-tris(carboxylato-κO-methyl)-1,4,7,10-tetraazacyclododecan-1-yl-κ^4N^1,N^4,N^7,N^10]acetyl-κO}-D-phenylalanyl-L-cysteinyl-tyrosyl-D-tryptophyl-L-lysyl-L-threonyl-L-cysteinyl-L-threoninato cyclic (2→7)-disulfide(4-)](177Lu)lutetate(1-) [^177Lu-DOTA-TATE]”, the radiochemical purity [2] was “at least 95%”.
